Experimental data as given in FireProtDB (doi:10.1021/bi050502v).

Conditions: Locusta migratoria, pH 7.4, CD, Na2HPO4 KH2PO4 10 mM 2 mM, NaCl 127 mM, reversible: yes, whole UniProt chain shown

B1: Apolipophorin-3b wild type, P10762 (protein)
chain: MNTLLAVLMLAVAAQARPDAAGHVNIAEAVQQLNHTIVNAAHELHETLGLPTPDEALNLLTEQANAFKTKIAEVTTSLKQEAEKHQGSVAEQLNRFARNLNNSIHDAATSAQPADQLNSLQSALTNVGHQWQTSQPRPSVAQEAWAPVQSALQEAAEKTKEAAANLQNSIQSAVQKPAN
For B1, the “denaturant midpoint (higher = more stable)” value (25 °C, GdnHCl) was 0.51 M, the unfolding free energy (25 °C, GdnHCl) was 2.05 kcal/mol and the Tm (Thermal) was 53 °C.
